# Biological target: the molecule itself
# Test: crystal structure; apo form, 2.15 Å, space group P32, 6 monomers in the asymmetric unit; crystals from 0.2 M MgCl2, 0.1 M sodium citrate tribasic dihydrate pH 5, 10% w/v PEG, BME added; data at 100 K
protein,measurement,value
"Nmar_1308 protein, bifunctional crotonyl-CoA hydratase (CCAH) and 3-hydroxypropionyl-CoA dehydratase (3HPD) from Nitrosopumilus maritimus SCM1 (enzyme, Protein encoded by Nmar_1308 of Nitrosopumilus maritimus SCM1; codon-optimized gene construct from Genscript in pET28a (NdeI/BamHI); 229-237 residues modeled per chain in PDB 7EUM; Homohexamer (dimer of trimers) in the crystal; source: E. coli BL21(Rosetta-2), purified (Ni-NTA, thrombin cleavage, reverse Ni-NTA, Superdex 200); not shown: His6, N-terminal, cleaved) MSLVTTSTSDGICTVKINRPDKLNAMNTDVAKELIKTFEELNHNDDVKVIILTGEGEKAFSAGADIEYMSKISADESVEYAKTGQLVTATVELVKQPTIAAVNGFALGGGCELAMSCDIRIAADTAKLGQPEVTIGVPPGWGGTQRLMRIVGIAKAKELVYTGKMIKAEEAKEIGLVNHVVPLASLQEEALKMAQQIAGNSTMGVQMSKVAINKGRNADLDTGLGLEILAWRNCFTHPDRQERMTAFVNKSKK",stoichiometry N,6
